The target of this assay is CD84 on CD4+ T cells of wild-type mice (mouse) (UniProt Q18PI6). In words: cell-based or functional assay.
UniProt Q18PI6, sequence (Q18PI6 22-329): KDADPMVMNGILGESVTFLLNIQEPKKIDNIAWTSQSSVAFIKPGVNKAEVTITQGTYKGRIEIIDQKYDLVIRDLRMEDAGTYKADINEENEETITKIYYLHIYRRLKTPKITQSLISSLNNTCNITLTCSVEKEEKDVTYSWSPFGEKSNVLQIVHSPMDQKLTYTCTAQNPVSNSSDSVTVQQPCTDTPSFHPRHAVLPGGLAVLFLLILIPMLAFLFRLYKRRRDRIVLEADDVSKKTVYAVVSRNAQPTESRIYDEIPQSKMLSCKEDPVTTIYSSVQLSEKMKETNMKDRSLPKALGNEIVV

On to “platelet-derived soluble CD84 (sCD84) in the releasate of GPVI-stimulated WT mouse platelets (from UniProt Q18PI6 22-221) (receptor)”, for which the distance and speed of migrating T cells (migration assay with platelet releasate) was determined as 25%.

The record behind these values is patent US20220372159A1.
